{
  "source": "patent US20050130920A1",
  "about": "(published 2005)",
  "binders": {"B1": {"name": "tyrosinase 207-216, FLPWHRLFLL (candidate tyrosinase housekeeping epitope) (peptide)", "peptide": "FLPWHRLFLL", "notes": "Synthetic 10-mer added to T2 cells at 100, 10, 1 and 0.1 ug/ml"}},
  "molecular_target": "T1, HLA-A2.1 on T2 cells (empty or unstable surface MHC class I, with added beta-2 microglobulin) (human)",
  "T1 construct": "it is treated here as the same molecule; also called HLA-A*0201",
  "assay": "T2 cell HLA-A2.1 stabilisation, W6/32 staining, flow cytometry",
  "experimental": "T2 cells, which express empty or unstable MHC molecules on their surfacer were washed twice and suspended at 5×10⁶ cells/ml in serum-free complete Iscove's modified Dulbecco's medium (IMDM). B2 microglobulin (Sigma, St. Louis, Mo.) was added at 5 μg/ml and the cells distributed to a 96-well U-bottom plate at 5×10⁵ cells/well. Peptides were added at 100, 10, 1 and 0.1 μg/ml. The plate was rocked gently for 2 minutes and then incubated for 4 hours in a 5% CO₂ incubator at 37° C. After the unbound peptide was removed by washing twice with IMDM, a saturating amount of monoclonal antibody W6/32 (Sigma) was added. After incubation for 30 minutes at 4° C., cells were washed with PBS supplemented with 1% heat-inactivated FCS, 0.1% (w:v) sodium azide, pH 7.4-7.6 (staining buffer), and incubated with fluorescein isothiocyanate (FITC)-conjugated goat F(ab′) antimouse-IgG (Sigma) for 30 min at 4° C. and washed four times as before. The cells were resuspended in staining buffer and fixed by adding a quarter volume of 2% paraformaldehyde.",
  "data": [
    {"binder": "B1", "values": [
      {"measurement": "binding result", "value": "binds"}
    ]}
  ]
}
